Experimental data: paper PMC10458775, “A Combined Plasmonic and Electrochemical Aptasensor Based on Gold Nanopit Arrays for the Detection of Human Serum Albumin”

Target: human serum albumin (HSA) (Homo sapiens, UniProt P02768 25-609)
Assay: alternating current voltammetry (electrochemical aptasensor); gold nanopit array with 6-MCH; HSA up to 600 uM; LOD 0.08 nM (not a Kd); 10 mM Tris, 150 mM NaCl, 5 mM KCl, pH 7.4, room temperature; 30 min HSA incubation; aptamer immobilized in 10 mM Tris, 1.5 M NaCl, 1 mM MgCl2, pH 7.4
Conditions: label: 5' ferrocene

Sequence of human serum albumin (HSA) (P02768 25-609): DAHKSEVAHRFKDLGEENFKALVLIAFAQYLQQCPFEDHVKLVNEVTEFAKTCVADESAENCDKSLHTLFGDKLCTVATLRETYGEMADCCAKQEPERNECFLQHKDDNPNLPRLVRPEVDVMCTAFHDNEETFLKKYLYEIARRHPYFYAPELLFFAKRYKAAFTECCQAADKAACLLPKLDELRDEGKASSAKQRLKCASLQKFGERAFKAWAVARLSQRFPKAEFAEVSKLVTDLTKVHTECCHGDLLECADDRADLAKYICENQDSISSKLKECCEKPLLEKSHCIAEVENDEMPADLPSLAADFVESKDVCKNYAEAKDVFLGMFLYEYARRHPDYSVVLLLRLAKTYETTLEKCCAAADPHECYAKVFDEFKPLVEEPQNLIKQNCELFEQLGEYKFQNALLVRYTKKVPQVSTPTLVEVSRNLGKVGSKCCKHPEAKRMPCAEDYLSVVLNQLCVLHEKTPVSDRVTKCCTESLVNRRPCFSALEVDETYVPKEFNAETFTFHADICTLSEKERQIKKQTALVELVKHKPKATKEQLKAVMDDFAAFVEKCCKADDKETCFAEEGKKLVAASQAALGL

B1: HSA aptamer (ssDNA)
DNA: GTCTCAGCTACCTTACCGTATGTGGCCCAAAGCGTCTGGATGGCTATGAA
modifications: 3' (CH2)6-SH thiol (disulfide reduced with TCEP), immobilized on gold
B1: binds.
